The text below walks through data of patent US7241581B2, “Methods of identifying compounds that modulate IL-4 receptor-mediated IgE synthesis utilizing a c-MYC protein” (Rigel Pharmaceuticals, Inc., priority 2002, dated 2007).

In one test the target is T1, human c-Myc protein (Homo sapiens, UniProt P01106).
T1 construct: expressed in transfected cells; prey cDNA library made from the A5T4 reporter line (human BJAB B-cells)
Kind of test: Yeast two hybrid (YTH) interaction assay, β-galactosidase. It counts as binding. On the procedure:
Potential binding partners for peptide BR10A1 wt were identified in a β-galactosidase yeast two-hybrid (YTH) assay using peptide BR10A1 wt as bait and a cDNA library constructed from the A5T4 reporter cell line as prey. Binding was assessed by β-galactosidase quantification using BetaFluor (Novagen) as a substrate. A negative interaction control (no cDNA fused downstream of the GAL4 activation domain sequence) was also run. A general outline of the YTH assay is illustrated in FIG. 5A. Following clustering, filtering to remove non-specific bait hits (e.g., GFP and BFP), singletons and clusters recognized by 10 or more cDNA baits (based upon historical YTH assays), and prioritization, 30 prey clones were identified as hits.
Potential targets identified in the YTH assay were reconfirmed as generally outlined in FIG. 6. The cDNA clones identified as hits in the YTH assay were purified and rescreened for interaction with the BR10A1 wt peptide in a YTH assay. The hit clones were also screened in a control assay for interaction with the BFP using a vector (pGBKT7) that contained only the BFP and not the BR10A1 peptide. At this stage, 25 putative target clones remained.
The interaction of BR10A1 wt peptide and its mutants with the clones identified as potential targets for the peptide BR10A1 wt was then quantified in a β-galactosidase YTH assay. The YTH assay was performed in the manner described above. A general outline of this YTH assay is illustrated in FIG. 5B. For each clone tested, an interaction profile was developed by comparing the β-galactosidase activity of each mutant to that of the wild type peptide as described above.
The interaction of selected IOF, ROF and LOF mutants with different polypeptides encoded by the putative target clones were quantified using the YTH assay described above. Based on the YTH assay, for each putative target, the mutants were categorized into the following four interaction categories: (1) reduction of interaction (ROI); (2) loss of interaction (LOI); (3) increase of interaction (IOI); and (4) interactionally neutral (N), by assessing the binding affinity ratio of the mutant peptide and the wild type peptide (β-gal activity of mutant/wild type) to the putative target. The selection criteria for categorizing the interactions is shown on FIG. 8.

Test [1] relates to IL-4 induced germline ε transcription. Kind of test: Re-infection assay in naive A5T4 cells (BFP- vs BFP+ populations, GFP by FACS). It counts as cell-based, human. As to conditions: geometric mean GFP fluorescence of BFP- population divided by BFP+ population, IL-4 60 U/mL, 3 days. On the procedure:
The ability of peptide BR10A1 wt to inhibit germline ε transcription was confirmed in naive cells. Briefly, Phoenix cells were transfected with a retroviral vector encoding a BFP-BR10A1 wt peptide fusion as described in WO 99/58663 and WO 97/27213. Naïve A5T4 cells were infected with the resultant virions and grown for 3 days. The infected cells were stimulated with IL-4 (60 U/mL) and, after 3 days, the cells were assessed by FACS for BFP and GFP. […] The BFP fluorescence data corresponding to the BFP^+ and BFP^− populations are provided in Panel A. The GFP fluorescence data corresponding to the BFP^+ and BFP^− populations are presented in Panel B. The reporter ratio for this purpose is determined as the geometric mean of the GFP fluorescence of the BFP^− population divided by the geometric mean of the GFP fluorescence of the BFP^+ population. The reporter ratio for the BR10A1 in this re-infection assay was 1.27.
(In flow cytometry, cells or beads pass a laser one at a time.)

T1 sequence (P01106 whole entry): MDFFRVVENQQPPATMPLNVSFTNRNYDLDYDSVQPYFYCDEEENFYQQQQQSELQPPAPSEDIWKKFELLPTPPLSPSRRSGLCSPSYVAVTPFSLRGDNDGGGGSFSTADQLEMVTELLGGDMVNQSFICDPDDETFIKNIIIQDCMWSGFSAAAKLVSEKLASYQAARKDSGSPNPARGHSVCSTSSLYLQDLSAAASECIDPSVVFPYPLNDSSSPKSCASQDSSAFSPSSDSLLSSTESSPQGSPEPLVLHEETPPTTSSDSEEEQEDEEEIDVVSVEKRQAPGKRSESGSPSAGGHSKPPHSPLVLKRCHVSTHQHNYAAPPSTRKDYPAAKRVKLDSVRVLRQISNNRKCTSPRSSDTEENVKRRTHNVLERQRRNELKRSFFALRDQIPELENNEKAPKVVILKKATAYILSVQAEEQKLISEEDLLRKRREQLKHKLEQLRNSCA

Turning to “MQRRESCITRSVEEGWGLFYLGP (peptide encoded by random oligo-BR10A1wt) [wild-type peptide from random library, expressed in cells as BFP-peptide fusion]”, the “binding to human c-Myc protein in yeast two hybrid interaction assay” value in the test with human c-Myc protein is on record as “found to bind”. For the same sequence, in test [1], the Reporter Ratio stood at 1.27.
